In PMC12782892, “Natural variations in MdBPM2/MdRGLG3‐MdNAC83 network controlling the quantitative segregation of apple fruit storability”:

Target: MdNAC83 (Malus domestica, UniProt D9ZJA0 1-255)
Assay: EMSA; LightShift Chemiluminescent EMSA kit (Thermo), per Fan et al. 2018; buffer, salt, pH and temperature not stated
Settings: protein: recombinant, tags: His (pET-32a), chain copies: 2, blunt

Sequence of MdNAC83 (D9ZJA0 entry or part of it): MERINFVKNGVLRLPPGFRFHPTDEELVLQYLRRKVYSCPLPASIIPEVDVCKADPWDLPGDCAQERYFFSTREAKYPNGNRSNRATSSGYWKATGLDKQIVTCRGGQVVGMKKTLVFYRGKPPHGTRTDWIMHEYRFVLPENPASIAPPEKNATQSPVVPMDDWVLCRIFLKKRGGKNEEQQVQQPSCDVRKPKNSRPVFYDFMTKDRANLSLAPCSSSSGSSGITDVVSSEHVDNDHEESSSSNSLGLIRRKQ

B1: MdACO1 promoter probe (MdACO1-F/R) (dsDNA)
DNA 1: TTGGTAGGGGTCCATCAGGACGTGCTTACTGTTCCCTACT
DNA 2: AGTAGGGAACAGTAAGCACGTCCTGATGGACCCCTACCAA
B1: binds ((LightShift kit; MdACO1-HotF)).

B2: MdXTH28 promoter probe (MdXH28-F/R) (dsDNA)
DNA 1: CCGTCCAAACCAGTAAACACGTAATTATAATCTCATTTAT
DNA 2: ATAAATGAGATTATAATTACGTGTTTACTGGTTTGGACGG
B2: binds ((LightShift kit)).

B3: MdMANA3 promoter probe (MdMAN3-F/R) (dsDNA)
DNA 1: GGTTAATTTTCTCAATTTCGTATTGATTTACTCTTGTACT
DNA 2: AGTACAAGAGTAAATCAATACGAAATTGAGAAAATTAACC
B3: binds ((LightShift kit; MdMAN3-HotF)).
